Results taken from article PMC11188183.

Tests used:
[1] = molecular target: kinesin family member C1 (KIFC1) (human) (UniProt Q9BW19); experiment: affinity purification with mass spectrometry; anti-KIFC1 antibody (Abcam ab172620) crosslinked to magnetic beads; nuclear lysate of HCC1806 (AA) cells; LC-MS/MS of the eluate
[2] = molecular target: kinesin family member C1 (KIFC1) (human) (UniProt Q9BW19); experiment: affinity purification with mass spectrometry; anti-KIFC1 antibody (Abcam ab172620) crosslinked to magnetic beads; nuclear lysate of MDA-MB-468 (AA) cells; LC-MS/MS of the eluate
[3] = molecular target: kinesin family member C1 (KIFC1) (human) (UniProt Q9BW19)

UniProt Q9BW19, sequence (Q9BW19 whole entry): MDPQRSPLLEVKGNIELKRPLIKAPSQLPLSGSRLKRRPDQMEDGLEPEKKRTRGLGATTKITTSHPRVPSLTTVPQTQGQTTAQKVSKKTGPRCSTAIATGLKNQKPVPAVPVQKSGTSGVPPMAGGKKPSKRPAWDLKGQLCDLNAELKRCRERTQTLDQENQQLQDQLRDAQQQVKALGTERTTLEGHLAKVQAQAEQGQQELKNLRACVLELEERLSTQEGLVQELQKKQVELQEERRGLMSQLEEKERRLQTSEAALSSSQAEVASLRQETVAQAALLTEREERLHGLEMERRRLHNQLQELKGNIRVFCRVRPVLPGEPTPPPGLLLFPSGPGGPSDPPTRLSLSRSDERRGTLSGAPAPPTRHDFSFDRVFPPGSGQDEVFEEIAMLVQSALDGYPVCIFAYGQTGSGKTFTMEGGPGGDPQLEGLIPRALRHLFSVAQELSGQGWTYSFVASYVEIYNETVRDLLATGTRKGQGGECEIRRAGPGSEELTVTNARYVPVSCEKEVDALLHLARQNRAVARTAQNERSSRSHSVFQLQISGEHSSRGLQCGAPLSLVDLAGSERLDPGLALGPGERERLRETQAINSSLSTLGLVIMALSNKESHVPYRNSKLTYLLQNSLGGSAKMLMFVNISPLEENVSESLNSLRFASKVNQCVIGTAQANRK

Substance: myosin heavy chain 9 (MYH9) (from UniProt P35579 1-1960) (natural protein)
- relative abundance of MYH9 in the nKIFC1 immunoprecipitate, fold over MDA-MB-231 [1]: 1.6 fold
- relative abundance of MYH9 in the nKIFC1 immunoprecipitate, fold over MDA-MB-231 [2]: 1.8 fold
- BrdU cell proliferation of AA TNBC cells treated with CW069 + blebbistatin [3]: 1.5 fold
